# Literature values in article PMC7460888.
# Target: SARS-CoV-2 spike RBD RBD (SARS-CoV-2) (UniProt P0DTC2)
substance,measurement,value
SBP1 (ACE2 alpha1 helix peptide),Kd,0.047 µM
